Test results from paper PMC10556033.

Experiment: eIF4E2 co-IP, 4E-T and GIGYF2 immunoblot
Conditions: glycan lost; control: MEST cDNA (wild type)

B1: mesoderm-specific transcript (MEST), also named PEG1: MEST N163Q (protein)
parent chain: MVRRDRLRRMREWWVQVGLLAVPLLAAYLHIPPPQLSPALHSWKSSGKFFTYKGLRIFYQDSVGVVGSPEIVVLLHGFPTSSYDWYKIWEGLTLRFHRVIALDFLGFGFSDKPRPHHYSIFEQASIVEALLRHLGLQNRRINLLSHDYGDIVAQELLYRYKQNRSGRLTIKSLCLSNGGIFPETHRPLLLQKLLKDGGVLSPILTRLMNFFVFSRGLTPVFGPYTRPSESELWDMWAGIRNNDGNLVIDSLLQYINQRKKFRRRWVGALASVTIPIHFIYGPLDPVNPYPEFLELYRKTLPRSTVSILDDHISHYPQLEDPMGFLNAYMGFINSF
- other: eIF4E2-4E-T/GIGYF2 complex formation in cells: increases
